One assay addresses HLA-B*54:01. Description: IEDB peptide-MHC binding, purified MHC/competitive/radioactivity; filed as Kd, often an IC50 or EC50 that approximates it; ≥ and ≤ were set here for values at or beyond the usual limits of such assays.
A further assay concerns the target HLA-B*35:01. The description is as above.
In the next assay the target is HLA-B*53:01. Described as above.
For a further assay, the target named is HLA-B*08:01. The description is as above. The following applies: source organism: Hepacivirus hominis.
The target in a further assay is HLA-B*51:01. Described as above.
A further assay addresses HLA-B*40:02. The description is as above.
The next assay concerns the target HLA-B*44:02. Described as above.
The target in a further assay is HLA-B*18:01. The description is as above.
The next assay deals with HLA-B*40:01. Described as above.
For the next assay, the target named is HLA-B*45:01. Described as above.
The next assay deals with HLA-B*44:03. The description is as above.
Assay [1] deals with HLA-A*11:01. Description: IEDB peptide-MHC binding, purified MHC/competitive/fluorescence; ≥ and ≤ were set here for values at or beyond the usual limits of such assays.
A further assay has as its target HLA-B*07:02. Description: IEDB peptide-MHC binding, purified MHC/competitive/radioactivity; filed as Kd, often an IC50 or EC50 that approximates it; ≥ and ≤ were set here for values at or beyond the usual limits of such assays.
In another assay the target is HLA-A*02:06. The assay is described as above. The following applies: source organism: Vaccinia virus WR.
The target in another assay is HLA-A*33:01. The description is as above. The following applies: source organism: Vaccinia virus WR.
The next assay concerns the target HLA-A*68:01. The assay is described as above. The following applies: source organism: Vaccinia virus WR.
A further assay concerns the target HLA-A*03:01. Described as above. The following applies: source organism: Vaccinia virus WR.
The next assay has as its target HLA-A*68:02. Described as above. The following applies: source organism: Vaccinia virus WR.
For the next assay, the target named is HLA-A*31:01. The assay is described as above. The following applies: source organism: Vaccinia virus WR.
In assay [2] the target is HLA-A*11:01. The description is as above. The following applies: source organism: Vaccinia virus WR.
In a further assay the target is HLA-A*02:02. The description is as above. The following applies: source organism: Vaccinia virus WR.
The target in the next assay is HLA-A*02:03. Described as above. The following applies: source organism: Vaccinia virus WR.
[3] abbreviates: source organism: Hepacivirus hominis.
The mark [4] stands for this setting: source organism: Mammarenavirus juninense.
[5] abbreviates: source organism: SARS coronavirus Tor2.
Setting [6] is: source organism: Vaccinia virus WR.
[7] abbreviates: source organism: Mammarenavirus lassaense.

In general, Kd refers to the equilibrium constant for the complex coming apart. The term IC50 denotes the concentration needed to halve the response being measured. Lower therefore signals higher potency.

Where only a bound is given, the exact number is not on record here.

On to RPALVFDIT, for which the Kd with HLA-B*54:01 (setting [3]) is 95.4 nM; in the assay with HLA-B*35:01 (setting [3]), 2080 nM; in the assay with HLA-B*53:01 (setting [3]), at least 50200 nM; in the assay with HLA-B*08:01, 2910 nM; in the assay with HLA-B*51:01 (setting [3]), at least 30700 nM.
Consider SDFLISEML, for which the Kd with HLA-B*40:02 (setting [4]) is 17.1 nM; in the assay with HLA-B*44:02 (setting [4]) it was 2400 nM; in the assay with HLA-B*18:01 (setting [4]) it was at least 56000 nM; in the assay with HLA-B*40:01 (setting [4]), 11500 nM; in the assay with HLA-B*45:01 (setting [4]), at least 27600 nM; in the assay with HLA-B*44:03 (setting [4]), at least 51500 nM.
Consider SELVIGAVI, for which the Kd with HLA-B*40:02 (setting [5]) is 55.9 nM; with HLA-B*44:02 (setting [5]) it was 605 nM; with HLA-B*18:01 (setting [5]) it was 2590 nM; with HLA-B*40:01 (setting [5]) it was 88.9 nM; with HLA-B*45:01 (setting [5]), 155 nM; with HLA-B*44:03 (setting [5]) it was 426 nM.
In the case of SQNSTEGRR, the 50% inhibitory concentration (IC50) with HLA-A*11:01 [1] (source organism: Sudan ebolavirus) was found to be 22400 nM.
As to TEGLCVDIPG, the Kd with HLA-B*40:02 (setting [5]) is 91.8 nM; in the assay with HLA-B*44:02 (setting [5]), at least 43300 nM; with HLA-B*18:01 (setting [5]), at least 70500 nM; in the assay with HLA-B*40:01 (setting [5]), at least 69600 nM; with HLA-B*45:01 (setting [5]), 74.8 nM; in the assay with HLA-B*44:03 (setting [5]) it was at least 34900 nM.
For TFSILNRKA, the IC50 with HLA-A*11:01 [1] (source organism: Zaire ebolavirus) worked out at 66500 nM.
With TPLVQPVGAL, the Kd came to 494 nM in the assay with HLA-B*54:01 (setting [5]); 5270 nM in the assay with HLA-B*35:01 (setting [5]); 1720 nM with HLA-B*53:01 (setting [5]); 86.9 nM with HLA-B*07:02 (setting [5]); 2340 nM with HLA-B*51:01 (setting [5]).
With TPVSMTYLY, the dissociation constant Kd with HLA-B*54:01 (setting [6]) is 972 nM; in the assay with HLA-B*35:01 (setting [6]) it was 0.0662 nM; in the assay with HLA-B*07:02 (setting [6]), 170 nM; with HLA-B*51:01 (setting [6]), at least 77500 nM.
For VETFYPKLQA, the dissociation constant (Kd) in the assay with HLA-B*40:02 (setting [5]) was 12600 nM; with HLA-B*44:02 (setting [5]), at least 70200 nM; with HLA-B*18:01 (setting [5]), at least 59600 nM; with HLA-B*40:01 (setting [5]) it was at least 69600 nM; with HLA-B*45:01 (setting [5]), 2600 nM; in the assay with HLA-B*44:03 (setting [5]), at least 41400 nM.
Take VILFIMFMLI: the Kd in the assay with HLA-A*02:06 turned out to be 1410 nM; with HLA-B*54:01 (setting [6]) it was 804 nM; with HLA-A*33:01, 514 nM; in the assay with HLA-A*68:01, 113 nM; in the assay with HLA-A*03:01 it was 81 nM; with HLA-A*68:02, 1080 nM. Further, the Kd with HLA-B*53:01 (setting [6]) was 1700 nM; with HLA-A*31:01 it was 128 nM; in the assay with HLA-A*11:01 [2], 353 nM; with HLA-B*07:02 (setting [6]), 5480 nM; in the assay with HLA-A*02:02, 722 nM; with HLA-A*02:03, 769 nM. The Kd in the assay with HLA-B*51:01 (setting [6]) was 7570 nM.
Consider VPSVNEYHML, for which the equilibrium dissociation constant (Kd) with HLA-B*54:01 (setting [6]) was at least 69900 nM; with HLA-B*35:01 (setting [6]), 4410 nM; with HLA-B*53:01 (setting [6]), 2170 nM; with HLA-B*07:02 (setting [6]), 1210 nM; in the assay with HLA-B*51:01 (setting [6]), at least 52200 nM.
As for VTLNASQYA, in the assay with HLA-A*11:01 [1] (source organism: Vaccinia virus Copenhagen), the IC50 is at least 227000 nM.
Regarding WEPEFYEAMY, the Kd with HLA-B*40:02 (setting [5]) is 7180 nM; with HLA-B*44:02 (setting [5]) it was 2220 nM; with HLA-B*18:01 (setting [5]), 1650 nM; with HLA-B*40:01 (setting [5]), 5410 nM; in the assay with HLA-B*45:01 (setting [5]) it was at least 52400 nM; with HLA-B*44:03 (setting [5]), 377 nM.
On to YPSMFEKHI, for which the Kd with HLA-B*54:01 (setting [7]) is at least 20500 nM; with HLA-B*35:01 (setting [7]), 898 nM; with HLA-B*53:01 (setting [7]), 228 nM; with HLA-B*07:02 (setting [7]), 16300 nM; with HLA-B*51:01 (setting [7]), 525 nM.

Values taken from the Immune Epitope Database (IEDB).
